Measurements: patent publication US20220332795A1

Target: human serum albumin (human) (UniProt P02768)
Test: solution ELISA screen (luminescence)

Sequence of human serum albumin (human) (P02768 25-609 limits assumed): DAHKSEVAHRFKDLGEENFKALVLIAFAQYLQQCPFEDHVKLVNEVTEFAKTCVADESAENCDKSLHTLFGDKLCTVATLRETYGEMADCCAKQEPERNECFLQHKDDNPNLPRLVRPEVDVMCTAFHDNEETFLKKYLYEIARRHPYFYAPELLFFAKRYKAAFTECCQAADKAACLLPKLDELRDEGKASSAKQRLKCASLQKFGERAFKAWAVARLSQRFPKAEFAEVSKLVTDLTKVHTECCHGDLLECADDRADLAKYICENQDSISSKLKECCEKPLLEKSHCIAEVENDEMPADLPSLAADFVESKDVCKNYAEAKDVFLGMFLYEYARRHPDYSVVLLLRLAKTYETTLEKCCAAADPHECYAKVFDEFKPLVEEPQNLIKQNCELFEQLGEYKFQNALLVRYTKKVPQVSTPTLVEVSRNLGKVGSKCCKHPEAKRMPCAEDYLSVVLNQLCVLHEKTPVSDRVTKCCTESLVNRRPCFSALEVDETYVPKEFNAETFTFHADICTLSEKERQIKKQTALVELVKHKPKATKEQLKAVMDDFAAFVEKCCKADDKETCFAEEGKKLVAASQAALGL

Row | Binder | RLU [RLU]
1 | SEQ ID NO 205 (designed binder, not shown: small tags and cut ends) MLPAPKNLVVSRVTEDSARLSWTAPDAAFDSFFIGYLEPQPPGEAILLGVPGSERSYDLTGLKPGTEYNVTIQGVKGGFPSMPLHPLVALFTT | 155000
2 | SEQ ID NO 213 (designed binder, not shown: small tags and cut ends) MLPAPKNLVVSRVTEDSARLSWTAPDAAFDSFYIAYAEPRPDGEAILLGVPGSERSYDLTGLKPGTEYSVLIHGVKGGLLSSPLFTT | 70300
3 | SEQ ID NO 204 (designed binder, not shown: small tags and cut ends) MLPAPKNLVVSRVTEDSARLSWTAPDAAFDSFFIGYLEPQPPGEAILLWVPGSERSYDLTGLKPGTEYNVTIQGVKGGFPSQFTT | 20000
4 | SEQ ID NO 210 (designed binder, not shown: small tags and cut ends) MLPAPKNLVVSRVTEDSARLSWTAPDAAFDSFFIGYLEPQPPGEAINLQVPGSERSYDLTGLKPGTEYNVTIQGVKGGFPSFPLSAVFTT | 48600
5 | SEQ ID NO 203 (designed binder, not shown: small tags and cut ends) MLPAPKNLVVSRVTEDSARLSWTAPDAAFDSFFIGYLEPQPPGEAIVLLVPGSERSYDLTGLKPGTEYNVTIQGVKGGFPSVPLAAFFTT | 26000
6 | SEQ ID NO 222 (designed binder, not shown: small tags and cut ends) MLPAPKNLVVSRVTEDSARLSWTAPDAAFDSFFIGYLEPQPPGEAIVLDVPGSERSYDLTGLKPGTEYNVTIQGVKGGFPSHPLAAAFTT | 15600
7 | SEQ ID NO 208 (designed binder, not shown: small tags and cut ends) MLPAPKNLVVSRVTEDSARLSWTAPDAAFDSFFIGYLEPQPPGEAIVLAVPGSERSYDLTGLKPGTEYNVTIQGVKGGFPSYPLVAAFTT | 16400
8 | SEQ ID NO 223 (designed binder, not shown: small tags and cut ends) MLPAPKNLVVSRVTEDSARLSWTAPDAAFDSFFIGYLEPQPPGEAIGLAVPGSERSYDLTGLKPGTEYNVTIQGVKGGFPSVPLQANFTT | 18300
9 | SEQ ID NO 216 (designed binder, not shown: small tags and cut ends) MLPAPKNLVVSRVTEDSARLSWTAPDAAFDSFYIAYAEPRPDGEAISLSVPGSERSYDLTGLKPGTEYSVLIHGVKGGLLSSPPKFTT | 192000
10 | SEQ ID NO 221 (designed binder, not shown: small tags and cut ends) MLPAPKNLVVSRVTEDSARLSWTAPDAAFDSFFIGYLEPQPPGEAIFLDVPGSERSYDLTGLKPGTEYNVTIQGVKGGFPSPLTAFFTT | 59000
11 | SEQ ID NO 254 (designed binder, not shown: small tags and cut ends) MLPAPKNLVVSRVTEDSARLSWTAPDAAFDSFYIAYAEPRPDGEAILLAVPGSERSYDLTGLKPGTEYSVLIHGVKGGLLSSPLSAKFTT | 21500
12 | SEQ ID NO 207 (designed binder, not shown: small tags and cut ends) MLPAPKNLVVSRVTEDSARLSWTAPDAAFDSFYIAYAEPRPDGEAIHLSVPGSERSYDLTGLKPGTEYSVLIHGVKGGLLSSPLAAYFTT | 121000
13 | SEQ ID NO 224 (designed binder, not shown: small tags and cut ends) MLPAPKNLVVSRVTEDSARLSWTAPDAAFDSFYIAYAEPRPDGEAILLRVPGSERSYDLTGLKPGTEYSVLIHGVKGGLLSSPLVAEFTT | 26200
14 | SEQ ID NO 227 (designed binder, not shown: small tags and cut ends) MLPAPKNLVVSRVTEDSARLSWTAPDAAFDSFYIAYAEPRPDGEAIGLRVPGSERSYDLTGLKPGTEYSVLIHGVKGGLLSSPLSAIFTT | 28200
15 | SEQ ID NO 225 (designed binder, not shown: small tags and cut ends) MLPAPKNLVVSRVTEDSARLSWTAPDAAFDSFYIAYAEPRPDGEAILLQVPGSERSYDLTGLKPGTEYSVLIHGVKGGLLSSPLSASFTT | 17000
16 | SEQ ID NO 211 (designed binder, not shown: small tags and cut ends) MLPAPKNLVVSRVTEDSARLSWTAPDAAFDSFYIAYAEPRPDGEAIQLHVPGSERSYDLTGLKPGTEYSVLIHGVKGGLLSSPLVAIFTT | 13000
17 | SEQ ID NO 218 (designed binder, not shown: small tags and cut ends) MLPAPKNLVVSRVTEDSARLSWTAPDAAFDSFYIAYAEPRPDGEAIHLVVPGSERSYDLTGLKPGTEYSVLIHGVKGGLLSSPLSAIFTT | 14100
18 | SEQ ID NO 214 (designed binder, not shown: small tags and cut ends) MLPAPKNLVVSRVTEDSARLSWTAPDAAFDSFYIAYAEPRPDGEAIGLQVPGSERSYDLTGLKPGTEYSVLIHGVKGGLLSSPLCAEFTT | 30200
19 | SEQ ID NO 206 (designed binder, not shown: small tags and cut ends) MLPAPKNLVVSRVTEDSARLSWTAPDAAFDSFYIAYAEPRPDGEAIGLDVPGSERSYDLTGLKPGTEYSVLIHGVKGGLLSSPLSAIFTT | 14000
20 | SEQ ID NO 215 (designed binder, not shown: small tags and cut ends) MLPAPKNLVVSRVTEDSARLSWTAPDAAFDSFYIAYAEPRPDGEAIVLWVPGSERSYDLTGLKPGTEYSVLIHGVKGGLLSSPLIAEFTT | 22400
21 | SEQ ID NO 209 (designed binder, not shown: small tags and cut ends) MLPAPKNLVVSRVTEDSARLSWTAPDAAFDSFYIAYAEPRPDGEAILLQVPGSCRSYDLTGLKPGTEYSVLIHGVKGGLLSSPLTAIFTT | 17800
22 | SEQ ID NO 226 (designed binder, not shown: small tags and cut ends) MLPAPKNLVVSRVTEDSARLSWTAPDAAFDSFYIAYAEPRPDGEAIGLHVPGSERSYDLTGLKPGTEYSVLIHGVKGGLLSSPLTASFTT | 16000
23 | SEQ ID NO 219 (designed binder, not shown: small tags and cut ends) MLPAPKNLVVSRVTEDSARLSWTAPDAAFDSFYIAYAEPRPDGEAISLKVPGSERSYDLTGLKPGTEYSVLIHGVKGGLLSSPLEAIFTT | 11800
24 | SEQ ID NO 217 (designed binder, not shown: small tags and cut ends) MLPAPKNLVVSRVTEDSARLSWTAPDAAFDSFYIAYAEPRPDGEAIILEVPGSERSYDLTGLKPGTEYSVLIHGVKGGLLSSPLRAVFTT | 16200
25 | SEQ ID NO 212 (designed binder, not shown: small tags and cut ends) MLPAPKNLVVSRVTEDSARLSWTAPDAAFDSFYIAYAEPRPDGEAIWLAVPGSERSYDLTGLKPGTEYSVLIHGVKGGLLSSPLHAQFTT | 17400

The remaining lines, values ahead:

Row | RLU [RLU] | Binder
26 | 64400 | SEQ ID NO 270 (designed binder, not shown: small tags and cut ends) MLPAPKNLVVSRVTEDSARLSWTAPDAAFDSFAIEYCETKMCGEAIVLTVPGSERSYDLTGLKPGTEYRVPIPGVKGGTASLPLSAIFTT
27 | 117000 | SEQ ID NO 268 (designed binder, not shown: small tags and cut ends) MLPAPKNLVVSRVTEDSARLSWTAPDAAFDSFYIAYAEPRPDGEAIYLEVPGSERSYDLTGLKPGTEYSVLIHGVKGGLLSSPLFTT
28 | 102000 | SEQ ID NO 255 (designed binder, not shown: small tags and cut ends) MLPAPKNLVVSRVTEDSARLSWTAPDAAFDSFFIGYLEPQPPGEAILLFVPGSERSYDLTGLKPGTEYNVTIQGVKGGFPSTPLSASFTT
29 | 29800 | SEQ ID NO 267 (designed binder, not shown: small tags and cut ends) MLPAPKNLVVSRVTEDSARLSWTAPDAAFDSFYIAYAEPRPDGEAIGLWVPGSERSYDLTGLKPGTEYSVLIHGVKGGLLSSPLVAYFTT
30 | 76100 | SEQ ID NO 256 (designed binder, not shown: small tags and cut ends) MLPAPKNLVVSRVTEDSARLSWTAPDAAFDSFYIAYAEPRPDGEAIQLTVPGSERSYDLTGLKPGTEYSVLIHGVKGGLLSSPLHAYFTT
31 | 30900 | SEQ ID NO 262 (designed binder, not shown: small tags and cut ends) MLPAPKNLVVSRVTEDSARLSWTAPDAAFDSFYIAYAEPRPDGEAIVLHVPGSERSYDLTGLKPGTEYSVLIHGVKGGLLSSPLQAIFTT
32 | 29800 | SEQ ID NO 257 (designed binder, not shown: small tags and cut ends) MLPAPKNLVVSRVTEDSARLSWTAPDAAFDSFYIAYAEPRPDGEAIQLGVPGSERSYDLTGLKPGTEYSVLIHGVKGGLLSSPLRAYFTT
33 | 24400 | SEQ ID NO 264 (designed binder, not shown: small tags and cut ends) MLPAPKNLVVSRVTEDSARLSWTAPDAAFDSFYIAYAEPRPDGEAINLSVPGSERSYDLTGLKPGTEYSVLIHGVKGGLLSSPLDAYFTT
34 | 23800 | SEQ ID NO 263 (designed binder, not shown: small tags and cut ends) MLPAPKNLVVSRVTEDSARLSWTAPDAAFDSFYIAYAEPRPDGEAIALVVPGSERSYDLTGLKPGTEYSVLIHGVKGGLLSSPLAANFTT
35 | 26500 | SEQ ID NO 258 (designed binder, not shown: small tags and cut ends) MLPAPKNLVVSRVTEDSARLSWTAPDAAFDSFYIAYAEPRPDGEAILLEVPGSERSYDLTGLKPGTEYSVLIHGVKGGLLSSPLVAFFTT
36 | 174000 | SEQ ID NO 261 (designed binder, not shown: small tags and cut ends) MLPAPKNLVVSRVTEDSARLSWTAPDAAFDSFYIAYAEPRPDGEAILLQVPGSERSYDLTGLKPGTEYSVLIHGVKGGLLSSPLIAKFTT
37 | 30700 | SEQ ID NO 265 (designed binder, not shown: small tags and cut ends) MLPAPKNLVVSRVTEDSARLSWTAPDAAFDSFYIAYAEPRPDGEAIVLEVPGSERSYDLTGLKPGTEYSVLIHGVKGGLLSSPLTASFTT
38 | 36200 | SEQ ID NO 266 (designed binder, not shown: small tags and cut ends) MLPAPKNLVVSRVTEDSARLSWTAPDAAFDSFYIAYAEPRPDGEAIRLQVPGSERSYDLTGLKPGTEYSVLIHGVKGGLLSSPLGASFTT
39 | 19900 | SEQ ID NO 269 (designed binder, not shown: small tags and cut ends) MLPAPKNLVVSRVTEDSARLSWTAPDAAFDSFYIAYAEPRPDGEAIWLDVPGSERSYDLTGLKPGTEYSVLIHGVKGGLLSSPLDAYFTT
40 | 33400 | SEQ ID NO 260 (designed binder, not shown: small tags and cut ends) MLPAPKNLVVSRVTEDSARLSWTAPDAAFDSFYIAYAEPRPDGEAIHLRVPGSERSYDLTGLKPGTEYNVTIQGVKGGFPSMPLSAIFTT
41 | 25400 | SEQ ID NO 259 (designed binder, not shown: small tags and cut ends) MLPAPKNLVVSRVTEDSARLSWTAPDAAFDSFYIAYAEPRPDGEAIQLGVPGSERSYDLTGLKPGTEYSVLIHGVKGGLLSSPLLAVFTT
